Data: patent publication US20230235012A1 (ALPINE IMMUNE SCIENCES, published 2023)
Numbering of substitutions follows the chain as printed. Names and notes keep the numbering of the source.

T1: human ICOS (human, UniProt Q9Y6W8 21-199)
T1 construct: whole, on cells
T1 sequence (looked up): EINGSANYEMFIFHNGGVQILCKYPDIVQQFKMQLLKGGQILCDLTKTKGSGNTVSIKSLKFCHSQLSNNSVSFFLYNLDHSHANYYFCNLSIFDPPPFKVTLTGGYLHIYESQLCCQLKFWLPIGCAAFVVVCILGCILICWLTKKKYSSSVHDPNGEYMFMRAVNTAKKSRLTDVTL

B1: ICOSL ECD N52H/N57Y/Q100P - G4S - Fc C220S/E233P/L234V/L235A/G236del/S267K (Fc fusion)
chain: DTQEKEVRAMVGSDVELSCACPEGSRFDLNDVYVYWQTSESKTVVTYHIPQHSSLEYVDSRYRNRALMSPAGMLRGDFSLRLFNVTPQDEQKFHCLVLSPSLGFQEVLSVEVTLHVAANFSVPVVSAPHSPSQDELTFTCTSINGYPRPNVYWINKTDNSLLDQALQNDTVFLNMRGLYDVVSVLRIARTPSVNIGCCIENVLLQQNLTVGSQTGNDIGERDKITENPVSTGEKNAATGGGGSEPKSSDKTHTCPPCPAPPVAGPSVFLFPPKPKDTLMISRTPEVTCVVVDVKHEDPEVKFNWYVDGVEVHNAKTKPREEQYNSTYRVVSVLTVLHQDWLNGKEYKCKVSNKALPAPIEKTISKAKGQPREPQVYTLPPSREEMTKNQVSLTCLVKGFYPSDIAVEWESNGQPENNYKTTPPVLDSDGSFFLYSKLTVDKSRWQQGNVFSCSVMHEALHNHYTQKSLSLSPGK
B2: ICOSL ECD N52H/N57Y/Q100P - no linker - Fc C220S/L234A/L235E/G237A (Fc fusion)
chain: DTQEKEVRAMVGSDVELSCACPEGSRFDLNDVYVYWQTSESKTVVTYHIPQHSSLEYVDSRYRNRALMSPAGMLRGDFSLRLFNVTPQDEQKFHCLVLSPSLGFQEVLSVEVTLHVAANFSVPVVSAPHSPSQDELTFTCTSINGYPRPNVYWINKTDNSLLDQALQNDTVFLNMRGLYDVVSVLRIARTPSVNIGCCIENVLLQQNLTVGSQTGNDIGERDKITENPVSTGEKNAATEPKSSDKTHTCPPCPAPEAEGAPSVFLFPPKPKDTLMISRTPEVTCVVVDVSHEDPEVKFNWYVDGVEVHNAKTKPREEQYNSTYRVVSVLTVLHQDWLNGKEYKCKVSNKALPAPIEKTISKAKGQPREPQVYTLPPSREEMTKNQVSLTCLVKGFYPSDIAVEWESNGQPENNYKTTPPVLDSDGSFFLYSKLTVDKSRWQQGNVFSCSVMHEALHNHYTQKSLSLSPGK
notes: direct fusion, linker 'none'
B3: ICOSL ECD N52H/N57Y/Q100R/F172S - no linker - Fc C220S/L234A/L235E/G237A (Fc fusion)
chain: B2 chain with P100R, F172S
notes: direct fusion, linker 'none'
B4: ICOSL ECD N52H/N57Y/Q100R/F172S - G4S - Fc C220S/L234A/L235E/G237A (Fc fusion)
chain: DTQEKEVRAMVGSDVELSCACPEGSRFDLNDVYVYWQTSESKTVVTYHIPQHSSLEYVDSRYRNRALMSPAGMLRGDFSLRLFNVTPQDEQKFHCLVLSRSLGFQEVLSVEVTLHVAANFSVPVVSAPHSPSQDELTFTCTSINGYPRPNVYWINKTDNSLLDQALQNDTVSLNMRGLYDVVSVLRIARTPSVNIGCCIENVLLQQNLTVGSQTGNDIGERDKITENPVSTGEKNAATGGGGSEPKSSDKTHTCPPCPAPEAEGAPSVFLFPPKPKDTLMISRTPEVTCVVVDVSHEDPEVKFNWYVDGVEVHNAKTKPREEQYNSTYRVVSVLTVLHQDWLNGKEYKCKVSNKALPAPIEKTISKAKGQPREPQVYTLPPSREEMTKNQVSLTCLVKGFYPSDIAVEWESNGQPENNYKTTPPVLDSDGSFFLYSKLTVDKSRWQQGNVFSCSVMHEALHNHYTQKSLSLSPGK
B5: ICOSL ECD N52H/N57Y/Q100P - G4S - Fc C220S/L234A/L235E/G237A (Fc fusion)
chain: B4 chain with R100P, S172F
B6: ICOSL ECD N52H/N57Y/Q100R/F172S - AAA - Fc C220S/E233P/L234V/L235A/G236del/S267K (Fc fusion)
chain: DTQEKEVRAMVGSDVELSCACPEGSRFDLNDVYVYWQTSESKTVVTYHIPQHSSLEYVDSRYRNRALMSPAGMLRGDFSLRLFNVTPQDEQKFHCLVLSRSLGFQEVLSVEVTLHVAANFSVPVVSAPHSPSQDELTFTCTSINGYPRPNVYWINKTDNSLLDQALQNDTVSLNMRGLYDVVSVLRIARTPSVNIGCCIENVLLQQNLTVGSQTGNDIGERDKITENPVSTGEKNAATAAAEPKSSDKTHTCPPCPAPPVAGPSVFLFPPKPKDTLMISRTPEVTCVVVDVKHEDPEVKFNWYVDGVEVHNAKTKPREEQYNSTYRVVSVLTVLHQDWLNGKEYKCKVSNKALPAPIEKTISKAKGQPREPQVYTLPPSREEMTKNQVSLTCLVKGFYPSDIAVEWESNGQPENNYKTTPPVLDSDGSFFLYSKLTVDKSRWQQGNVFSCSVMHEALHNHYTQKSLSLSPGK
B7: ICOSL ECD N52H/N57Y/Q100P - AAA - Fc C220S/E233P/L234V/L235A/G236del/S267K (Fc fusion)
chain: B6 chain with R100P, S172F
B8: ICOSL ECD N52H/N57Y/Q100P - no linker - Fc C220S/E233P/L234V/L235A/G236del/S267K (Fc fusion)
chain: DTQEKEVRAMVGSDVELSCACPEGSRFDLNDVYVYWQTSESKTVVTYHIPQHSSLEYVDSRYRNRALMSPAGMLRGDFSLRLFNVTPQDEQKFHCLVLSPSLGFQEVLSVEVTLHVAANFSVPVVSAPHSPSQDELTFTCTSINGYPRPNVYWINKTDNSLLDQALQNDTVFLNMRGLYDVVSVLRIARTPSVNIGCCIENVLLQQNLTVGSQTGNDIGERDKITENPVSTGEKNAATEPKSSDKTHTCPPCPAPPVAGPSVFLFPPKPKDTLMISRTPEVTCVVVDVKHEDPEVKFNWYVDGVEVHNAKTKPREEQYNSTYRVVSVLTVLHQDWLNGKEYKCKVSNKALPAPIEKTISKAKGQPREPQVYTLPPSREEMTKNQVSLTCLVKGFYPSDIAVEWESNGQPENNYKTTPPVLDSDGSFFLYSKLTVDKSRWQQGNVFSCSVMHEALHNHYTQKSLSLSPGK
notes: direct fusion, linker 'None'
B9: ICOSL ECD N52H/N57Y/Q100P - AAA - Fc C220S/L234A/L235E/G237A (Fc fusion)
chain: DTQEKEVRAMVGSDVELSCACPEGSRFDLNDVYVYWQTSESKTVVTYHIPQHSSLEYVDSRYRNRALMSPAGMLRGDFSLRLFNVTPQDEQKFHCLVLSPSLGFQEVLSVEVTLHVAANFSVPVVSAPHSPSQDELTFTCTSINGYPRPNVYWINKTDNSLLDQALQNDTVFLNMRGLYDVVSVLRIARTPSVNIGCCIENVLLQQNLTVGSQTGNDIGERDKITENPVSTGEKNAATAAAEPKSSDKTHTCPPCPAPEAEGAPSVFLFPPKPKDTLMISRTPEVTCVVVDVSHEDPEVKFNWYVDGVEVHNAKTKPREEQYNSTYRVVSVLTVLHQDWLNGKEYKCKVSNKALPAPIEKTISKAKGQPREPQVYTLPPSREEMTKNQVSLTCLVKGFYPSDIAVEWESNGQPENNYKTTPPVLDSDGSFFLYSKLTVDKSRWQQGNVFSCSVMHEALHNHYTQKSLSLSPGK
B10: ICOSL ECD N52H/N57Y/Q100R/F172S - AAA - Fc C220S/L234A/L235E/G237A (Fc fusion)
chain: B9 chain with P100R, F172S
B11: ICOSL ECD Truncation #5 with N52H/N57Y/Q100R/C198R, Fc fusion (Fc fusion)
chain: DTQEKEVRAMVGSDVELSCACPEGSRFDLNDVYVYWQTSESKTVVTYHIPQHSSLEYVDSRYRNRALMSPAGMLRGDFSLRLFNVTPQDEQKFHCLVLSRSLGFQEVLSVEVTLHVAANFSVPVVSAPHSPSQDELTFTCTSINGYPRPNVYWINKTDNSLLDQALQNDTVFLNMRGLYDVVSVLRIARTPSVNIGCRIENVLLQQGGGGSGGGGSEPKSSDKTHTCPPCPAPEAEGAPSVFLFPPKPKDTLMISRTPEVTCVVVDVSHEDPEVKFNWYVDGVEVHNAKTKPREEQYNSTYRVVSVLTVLHQDWLNGKEYKCKVSNKALPAPIEKTISKAKGQPREPQVYTLPPSREEMTKNQVSLTCLVKGFYPSDIAVEWESNGQPENNYKTTPPVLDSDGSFFLYSKLTVDKSRWQQGNVFSCSVMHEALHNHYTQKSLSLSPG
notes: not restated for the C198R set
B12: ICOSL ECD with N52H/N57Y/Q100R/C198R, Fc fusion (Table 30C) (Fc fusion)
chain: DTQEKEVRAMVGSDVELSCACPEGSRFDLNDVYVYWQTSESKTVVTYHIPQHSSLEYVDSRYRNRALMSPAGMLRGDFSLRLFNVTPQDEQKFHCLVLSRSLGFQEVLSVEVTLHVAANFSVPVVSAPHSPSQDELTFTCTSINGYPRPNVYWINKTDNSLLDQALQNDTVFLNMRGLYDVVSVLRIARTPSVNIGCRIENVLLQQNLTVGSQTGNDIGERDKITENPVSTGEKNAATGGGGSGGGGSEPKSSDKTHTCPPCPAPEAEGAPSVFLFPPKPKDTLMISRTPEVTCVVVDVSHEDPEVKFNWYVDGVEVHNAKTKPREEQYNSTYRVVSVLTVLHQDWLNGKEYKCKVSNKALPAPIEKTISKAKGQPREPQVYTLPPSREEMTKNQVSLTCLVKGFYPSDIAVEWESNGQPENNYKTTPPVLDSDGSFFLYSKLTVDKSRWQQGNVFSCSVMHEALHNHYTQKSLSLSPG
notes: as for B11

Each binder was assayed against T1, human ICOS (assay: flow cytometry, transfected Expi293 cells).

Binder | MFI [MFI] | MFI ratio to WT [fold]
B1 | 93400 | –
B2 | 97700 | –
B3 | 106000 | –
B4 | 107000 | 1.4
B5 | 104000 | 1.3
B6 | 104000 | 1.3
B7 | 103000 | 1.3
B8 | 98500 | –
B9 | 97100 | 1.2
B10 | 105000 | 1.3

These binders were tested against T2, human CTLA-4 (human, UniProt P16410 36-223) (assay: flow cytometry, transfected Expi293 cells).
T2 construct: whole, on cells
T2 sequence (P16410 36-223): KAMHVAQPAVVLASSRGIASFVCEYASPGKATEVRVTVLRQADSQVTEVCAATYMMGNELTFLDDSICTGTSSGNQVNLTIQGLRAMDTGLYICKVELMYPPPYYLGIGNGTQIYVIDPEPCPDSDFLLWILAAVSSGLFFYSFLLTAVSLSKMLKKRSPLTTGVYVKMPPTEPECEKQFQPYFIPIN

Binder | MFI [MFI] | MFI ratio to WT [fold]
B1 | 188000 | –
B4 | 213000 | 22.7
B5 | 161000 | 17.1
B6 | 193000 | 20.5
B7 | 315000 | 33.5
B9 | 171000 | 18.2
B10 | 194000 | 20.6

The binders below were run against T3, human CD28 (human, UniProt P10747 19-220) (assay: flow cytometry, transfected Expi293 cells).
T3 construct: whole, on cells

Binder | MFI [MFI] | MFI ratio to WT [fold]
B4 | 67600 | 12.9
B5 | 69900 | 13.4
B6 | 57300 | 10.9
B7 | 69600 | 13.3
B9 | 68700 | 13.1
B10 | 65500 | 12.5

The binders below were run against T1, human ICOS (assay: flow cytometry, transfected cells; protein from CHO).

Binder | MFI [MFI] | MFI ratio to WT [fold]
B11 | 110000 | 1.1
B12 | 139000 | 1.4

Each binder was assayed against T2, human CTLA-4 in the same assay as above.

Binder | MFI [MFI] | MFI ratio to WT [fold]
B11 | 216000 | 28.5
B12 | 133000 | 17.5

Each binder was assayed against T3, human CD28 in the same assay as above.

Binder | MFI [MFI] | MFI ratio to WT [fold]
B11 | 86300 | 50
B12 | 59200 | 34.3
